Test system: tumor target cells that constitutively express a fluorescent reporter (mKate)
Test: Serial killing screen of IL15 formats and combinations with IL21 or IL7
Type: cell-based
Procedure: 6 to 7 days after transduction, NK cells were collected, counted and seeded in a co-culture with tumor target cells that constitutively express a fluorescent reporter (mKate) at the appropriate effector to target (E:T) ratios. Tumor target cell growth (area) was quantified using an imaging-based system (Incucyte, Sartorius). After 48 to 72 hours of co-culture, new target cells were plated, and the NK cells were collected from the original plates and transferred to newly seeded targets for a 2nd or 3rd tumor re-challenge (serial killing). Target cell area was quantified and compared across different conditions. […] Similar serial target cell killing is shown at a different E:T ratio in FIG. 60E.
Additionally, various constructions of a chimeric protein containing IL15 tethered to the IL15 receptor (FIG. 61A) was tested.

B1: IL7 with crIL15: CAR-NK cells co-expressing IL7 (SEQ ID NO: 394) with crIL15 (protein, UniProt P13232 26-177, looked up)
Interleukin-7: DCDIEGKDGKQYESVLMVSIDQLLDSMKEIGSNCLNNEFNFFKRHICDANKEGMFLFRAARKLRQFLKMNSTGDFDLHLLKVSEGTTILLNCTGQVKGRKPAALGEAQPTKSLEENKSLKEQKKLNDLCFLKRLLQEIKTCWNKILMGTKEH
serial target cell killing: no improvement in serial target cell killing

— patent US20260144818A1, “ARMED CHIMERIC RECEPTORS AND METHODS OF USE THEREOF” (Senti Biosciences, Inc., priority 2022, published 2026)
